Measurements reported in publication PMC7050208.

Test system: N[C@@H](CCOP(=O)(O)O)C(=O)O
Assay: coupled MESG/PNP phosphate release, A360
Format: biochemical, Bacillus spizizenii
Conditions: 50 mM HEPES-NaOH pH 7.5, 100 μM PLP

Substance	Km (0.1 μM enzyme) [µM]	kcat (0.1 μM enzyme) [s⁻¹]	Km (0.25 μM enzyme) [µM]	kcat (0.25 μM enzyme) [s⁻¹]
BsThrC (Bacillus spizizenii)	329	1.74		
RhiB (Bacillus spizizenii ATCC 6633 = JCM 2499)			824	0.60
